Experiments:
human leukocyte elastase = biological target: T1, human leukocyte elastase (Homo sapiens, UniProt P08246); experiment: Inhibition of leukocyte elastase (Ki); type: biochemical
T1 sequence (P08246 30-267): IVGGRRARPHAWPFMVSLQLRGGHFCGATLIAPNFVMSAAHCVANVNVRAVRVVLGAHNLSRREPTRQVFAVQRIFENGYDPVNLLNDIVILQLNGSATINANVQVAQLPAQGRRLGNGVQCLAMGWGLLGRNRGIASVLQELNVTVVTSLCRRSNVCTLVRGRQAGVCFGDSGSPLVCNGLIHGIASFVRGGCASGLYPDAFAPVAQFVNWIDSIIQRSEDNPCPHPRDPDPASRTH
Source text: The invention generally relates to novel uses of polypeptides comprising the sequence depicted in SEQ ID NO: 1 or homologue, derivatives, or fragments of the sequence depicted in SEQ ID NO: 1, for the treatment of medical conditions for which a use of […] has not yet been contemplated. […] Experiments for measuring the activity of leukocyte elastase and its inhibition can be conducted by the method described in European Patent EP 0 402 068. As used herein, the term “homologue” refers to peptides or polypeptides which share a substantial degree of homology on the amino acid level with the sequence of SEQ ID NO: 1 over a certain stretch of its primary structure. In particular, the term “homologue” relates to polypeptides having a sequence (or comprising such sequence) which differs from the sequence depicted in SEQ ID NO: 1 by the substitution (or deletion) of one or more single amino acids. Generally, any amino acid from the sequence depicted in SEQ ID NO: 1 can be deleted or substituted against another amino acid as long as the inhibitory activity of the polypeptide is not lost. Further polypeptides are also included which differ from the sequence of SEQ ID NO: 1 by the insertion of one or more additional amino acids. “One or more” in the above context always refers to 1-50, preferably 1-20, even more preferably 1-10, most preferably 1-5. […]

[1] = Plasma Elafin levels (ELISA) in patients undergoing esophagectomy; type: in vivo, human
Protocol: Blood samples were removed at the intervals indicated and plasma was prepared and stored frozen at −20° C. Plasma Elafin levels were measured using an ELISA.

serum elastase [2] = biological target: T2, serum elastase (Homo sapiens, UniProt P08246); experiment: Serum elastase activity (photometric assay) in patients undergoing esophagectomy; type: in vivo; conditions: 200 mg i.v. over 30 min, beginning 15 min before surgery
T2 construct: from tissue; host or cells: human serum
T2 sequence (P08246 30-267): T1 sequence (P08246 30-267)
Protocol: Blood samples were removed at the intervals indicated and serum was prepared and stored frozen at −20° C. Serum elastase activity was determined using a photometric assay.

IL-6 = experiment: Serum IL-6 2 h after esophagectomy (immunoassay); type: in vivo, human; conditions: 200 mg i.v.; 2 h postoperatively; versus placebo
Protocol: Blood samples were taken 2 h after finishing surgery and serum was prepared. The serum level of IL-6 was measured using a routine immunoassay (“Immulite, IL-6”, available from Siemens Medical Solution Diagnostics).

IL-8 = experiment: Serum IL-8 6 h after esophagectomy (ELISA); type: in vivo, human; conditions: 200 mg i.v.; 6 h postoperatively; versus placebo
Protocol: Blood samples were taken 6 h after finishing surgery and serum was prepared. The serum level of IL-8 was measured using a commercially available ELISA, (“Immulite, IL-8”, available from Siemens Medical Solution Diagnostics).

CRP = conditions: 200 mg i.v.; first postoperative day; versus placebo
Protocol: Patients undergoing esophagectomy for esophagus carcinoma were administered either 200 mg Elafin in 250 mL physiological saline (verum) or 250 mL saline (placebo) i.v. over a period of 30 min beginning 15 min before the commencement of surgery. Serum was prepared from blood samples which were taken on admission and on the day after surgery. The serum levels of CRP were measured using a commercially available ELISA. (CRPL 3, cobas®, available from Roche/Hitachi).

[3] = Period of postoperative intensive care (ICU) after esophagectomy; type: in vivo, human; conditions: 200 mg i.v.
Source text: After surgery all patients were routinely admitted to the intensive care unit (ICU) at least overnight. Patients were maintained in the ICU for as long as the treating physician considered necessary.

[4] = biological target: T3, leukocyte elastase activity in the serum (Homo sapiens, UniProt P08246); experiment: Phase I: serum elastase activity after single intravenous infusion in healthy male volunteers; type: in vivo
T3 construct: from tissue; host or cells: human serum (ex vivo, after in vivo dosing of Elafin)
T3 sequence (P08246 30-267): T1 sequence (P08246 30-267)
Protocol: In order to assess the potential pharmacological effect of administered Elafin the inhibition of leukocyte elastase activity in the serum was measured.
The data presented in FIG. 7 were obtained in a Phase I clinical trial.
Within each dosage group the median elastase activity is shown relative to the predose value at t=0 min.

[5] = Plasma Elafin levels (ELISA) after subcutaneous injection in a healthy human volunteer; type: in vivo; conditions: 100 mg subcutaneously, n = 1
Protocol: 100 mg of Elafin physiological saline were injected subcutaneously into the abdomen of a healthy human volunteer. Blood samples were removed at the times indicated in FIG. 9 and plasma prepared and stored at −20° C. The plasma Elafin levels were measured using an ELISA.

serum elastase [6] = biological target: T2, serum elastase; experiment: Serum elastase activity after subcutaneous injection in a healthy human volunteer; type: in vivo; conditions: 100 mg subcutaneously; within the first 30 min-4 hours
Protocol: 100 mg of Elafin in physiological saline were injected subcutaneously into the abdomen of a healthy human volunteer. Blood samples were removed at the times indicated in FIG. 10 and serum prepared and stored at −20° C.

[7] = Stability of Elafin to sterilization, quantified by HPLC; type: physicochemical
Protocol: (§1) Lyophilized samples of 300 μg Elafin were sterilized either by heat sterilization or by ethylene oxide sterilization in a suitable standard sterile packing material. After sterilization, samples were dissolved in 300 μl distilled water. Elafin was quantified by HPLC (reverse phase C8-separation medium) and by determination of elastase inhibitory activity.

elastase = experiment: Stability of Elafin to sterilization, elastase inhibitory activity; type: biochemical
Protocol: as §1

rats = experiment: Biocompatibility: 14 days continuous intravenous infusion in rats; type: in vivo
Protocol: Rats were treated with up to 100 mg elafin/kg/day over a period of 14 days by continuous intravenous infusion.

Pseudomanae aeruginosa = conditions: cited from earlier work
Staphylococcus aureus = conditions: cited from earlier work
[8] = Phase I: plasma Elafin concentrations (ELISA) after single intravenous infusion in healthy male volunteers
Protocol: Each dose was administered to 6 individuals. After Elafin administration blood samples were taken at the indicated times from each volunteer and the plasma prepared and frozen to −20° C. Elafin in the plasma samples was quantified using an ELISA.

[9] = rats, up to 100 mg/kg/day, 14 days continuous i.v. infusion

In the case of “Elafin: Human anti-protease polypeptide of 57 amino acids, about 6 kDa (SEQ ID NO: 1); reversible inhibitor of neutrophil elastase and proteinase 3 (AQEPVKGPVSTKPGSCPIILIRCAMLNPPNRCLKDTDCPGIKKCCEGSCGMACFVPQ; listed as Homo sapiens)”, the Ki (human leukocyte elastase) is reported as ~0.1 nM, the “half life estimated from plasma levels in esophagectomy patients” value ([1]; 200 mg i.v. at the beginning of surgery) is reported as “at most 2 h” and the “period of significant plasma Elafin concentrations after the end of the operation” value ([1]; 200 mg i.v. over 30 min, beginning 15 min before surgery) is reported as “up to 6 h”. For the same substance, the “serum elastase activity during the period of surgery” value (serum elastase [2]) was “markedly reduced”, the “serum elastase activity in the course of the subsequent 3 postoperative days” value (serum elastase [2]) was “recovered to slightly less than the preoperative level” and the “diminution of postoperative increase in serum IL-6” value (IL-6) was “about 80%”. For the same substance, the “diminution of postoperative increase in serum IL-8” value (IL-8) was “about 70%”, the “diminution of postoperative increase in serum CRP” value (CRP) was “about 70%” and the “period of postoperative ICU care required” value ([3]; compared with placebo) was “significant reduction”. For the same substance, the “reduction of necessity for intensive care” value ([3]; meaning of 'significant reduction' (at least 25% or one day)) was “at least 25%”, the “Median t50% (duration of serum elastase inhibition to a threshold level of 50%)” value ([4]; 20 mg i.v.) was 40 min and the “Median t50% (duration of serum elastase inhibition to a threshold level of 50%)” value ([4]; 200 mg i.v.) was 480 min. For the same substance, the “Median t50% (duration of serum elastase inhibition to a threshold level of 50%)” value ([4]; 400 mg i.v.) was 720 min, the “period of pharmacologically relevant elastase inhibition” value ([4]; doses of 100-400 mg i.v.) was “up to 720 min” and the “inhibition of serum elastase” value ([4]; single i.v. infusion over 30 min, various doses) was “rapid and potent inhibition”. The “time of peak plasma concentration after administration” value [5] was “about 60 min”, the “inhibition of serum elastase activity” value (serum elastase [6]) was “potent inhibition” and the HPLC (Elafin quantified) ([7]; Control (room temperature)) was 108 µg. For the same substance, the HPLC (Elafin quantified) ([7]; Ethylene oxide sterilization) was 100 µg, the “HPLC (Elafin quantified)” value ([7]; Heat sterilization) was 0 µg and the Inhibitory activity (elastase; Control (room temperature)) was 100%. The Inhibitory activity (elastase; Ethylene oxide sterilization) was 101%, the Inhibitory activity (elastase; Heat sterilization) was −19- % and the side effects (rats; intravenously to rats) was “without any side effects”. For the same substance, the body weight (rats; [9]) was “Neither food consumption nor body weight was influenced”, the “clinical signs of haemolysis or cytotoxicity in skin, eyes, mucous membranes, lungs and circulation” value (rats; [9]) was “no clinical signs of haemolysis or cytotoxicity were observed” and the food consumption (rats; [9]) was “Neither food consumption nor body weight was influenced”. For the same substance, the mortality (rats; [9]) was “No mortality”, the “kill Pseudomanae aeruginosa” value (Pseudomanae aeruginosa) was “kill” and the “kill Staphylococcus aureus” value (Staphylococcus aureus) was “kill”. For the same substance, the “half-life of elafin in plasma” value ([8]; on average) was 1.92 h and the “mode of elimination from plasma” value ([8]; single i.v. infusion, healthy volunteers) was “eliminated in two first-order processes”.

Reference: patent publication US20140287985A1, “NOVEL USES OF ELAFIN” (Proteo Biotech AG, priority 2010, published 2014)
